Data published in patent US20200079823A1.

Biological target: cathepsin B

- IC50 of cathepsin B inhibition (fluorescence-based kit assay): 9 µM
Substance: surugamide I (13) (peptide)
